Measured values published in patent US20210033615A1 (DEUTSCHES KREBSFORSCHUNGSZENTRUM STIFTUNG DOES OFFENTLICHEN …, published 2021).

Tests used:
[1] = target: T1, PFKFB4 tagged at the C-terminal with the Large BiT (human, UniProt Q16877 1-469); assay: NanoBiT luminescence complementation in HEK293 cells; counted positive if the signal is at least 10-fold that of the negative control
T1 construct: Expressed in HEK293 cells for the NanoBiT assay; also called C-ter[LgBiT]PFKFB4; tagged PFKFB4; not shown: Large BiT (LgBiT) tag and any linker from the pLVX1.1-C[TK/LgBiT]; NanoBiT vector
T1 sequence (Q16877 whole entry): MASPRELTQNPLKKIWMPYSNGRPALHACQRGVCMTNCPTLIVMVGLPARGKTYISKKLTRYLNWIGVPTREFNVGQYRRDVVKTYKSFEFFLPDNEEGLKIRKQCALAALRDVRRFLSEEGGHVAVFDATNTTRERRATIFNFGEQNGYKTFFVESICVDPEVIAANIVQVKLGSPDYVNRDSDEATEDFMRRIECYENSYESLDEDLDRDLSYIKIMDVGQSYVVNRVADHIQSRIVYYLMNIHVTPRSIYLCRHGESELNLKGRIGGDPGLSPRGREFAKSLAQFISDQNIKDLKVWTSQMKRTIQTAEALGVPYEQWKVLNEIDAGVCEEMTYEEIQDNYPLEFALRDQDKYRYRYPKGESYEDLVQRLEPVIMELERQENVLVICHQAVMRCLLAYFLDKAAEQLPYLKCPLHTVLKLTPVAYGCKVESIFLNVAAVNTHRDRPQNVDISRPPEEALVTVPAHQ
From the text: The NanoBiT® assay from Promega is widely used to investigate protein-protein interactions. The NanoBiT Assay is described in detail in Dixon et al., (2016) “NanoLuc Complementation Reporter Optimized for Accurate Measurement of Protein Interactions in Cells” (ACS Chem. Biol., 11, 400-408; which is incorporated herein by reference in its entirety). The inventors adapted this method to develop a cellular screening assay in order to investigate the interaction of PFKFB4 with FBXO28. In that respect, both genes were cloned into pLVX vectors containing the four NanoBiT® versions (pLVX1.1-N[TK/LgBiT], pLVX2.1-N[TK/SmBiT], pLVX1.1-C[TK/LgBiT] and pLVX2.1-C[TK/SmBiT]), allowing the small and large BiT tags to be at the N- or C-terminal of both proteins of interest. As negative control, a vector containing a HaloTag protein cloned to the small BiT was used in combination with the large BiT cloned to either FBXO28 or PFKFB4.
All vectors were transfected in HEK293 cells and the combinations were tested as depicted in FIG. 7A. The luminescent signal was detected with the Nano-Glo® Luciferase Assay System from Promega. The interaction was considered positive if the signal was at least 10-fold of the respective negative control. […]

[2] = target: T2, 6-phosphofructo-2-kinase/fructose-2,6-biphosphatase 4 (PFKFB4) (human, UniProt Q16877 1-469); assay: NanoBiT competition in HEK293 cells
T2 construct: It was expressed inside cells (GSCs, HEK293) or in yeast two-hybrid; any tags in the coIP and Y2H are not described; also called untagged PFKFB4
T2 sequence (Q16877 whole entry): as above

B1: FBXO28 tagged at the N-terminal with the small BiT (other)
chain: MAAAAEERMAEEGGGGQGDGGSSLASGSTQRQPPPPAPQHPQPGSQALPAPALAPDQLPQNNTLVALPIVAIENILSFMSYDEISQLRLVCKRMDLVCQRMLNQGFLKVERYHNLCQKQVKAQLPRRESERRNHSLARHADILAAVETRLSLLNMTFMKYVDSNLCCFIPGKVIDEIYRVLRYVNSTRAPQRAHEVLQELRDISSMAMEYFDEKIVPILKRKLPGSDVSGRLMGSPPVPGPSAALTTMQLFSKQNPSRQEVTKLQQQVKTNGAGVTVLRREISELRTKVQEQQKQLQDQDQKLLEQTQIIGEQNARLAELERKLREVMESAVGNSSGSGQNEESPRKRKKATEAIDSLRKSKRLRNRK
notes: Expressed in HEK293 cells for the NanoBiT assay; also called N-ter[SmBiT]FBXO28; tagged FBXO28; not shown: Small BiT (SmBiT) tag and any linker from the pLVX2.1-N[TK/SmBiT]; NanoBiT vector
binding result [1]: binds | binding result [2]: binds
